This is an account of results in article PMC2993962, “Identification of a Novel Binding Partner of Phospholipase Cβ1: Translin-Associated Factor X” (PLoS ONE, 2010).

Sequences and labels used below:
B1: Gαq (natural protein, rat, UniProt P82471 1-359, looked up)
chain: MTLESIMACCLSEEAKEARRINDEIERQLRRDKRDARRELKLLLLGTGESGKSTFIKQMRIIHGSGYSDEDKRGFTKLVYQNIFTAMQAMVRAMDTLKIPYKYEHNKAHAQLVREVDVEKVSAFENPYVDAIKSLWNDPGIQECYDRRREYQLSDSTKYYLNDLDRVADPSYLPTQQDVLRVRVPTTGIIEYPFDLQSVIFRMVDVGGQRSERRKWIHCFENVTSIMFLVALSEYDQVLVESDNENRMEESKALFRTIITYPWFQNSSVILFLNKKDLLEEKIMYSHLVDYFPEYDGPQRDAQAAREFILKMFVDLNPDSDKIIYSHFTCATDTENIRFVFAAVKDTILQLNLKEYNLV
modifications: thiol-reactive probe CPM, ~1:1 probe:protein (in the binding titrations)
notes: G protein alpha subunit q (Gαq), rat; the nucleotide state is told by the assay; The sentence of the methods leaves open whether Gαq carried a His tag; also called CPM-Gαq(GTPγS); Gαq-GTPγS; source: Sf9 cells, purified
B3: His6-PLCβ1 (phospholipase Cβ1), full length enzyme (enzyme, rat, UniProt P10687 1-1216, looked up)
chain: MAGAQPGVHALQLKPVCVSDSLKKGTKFVKWDDDSTIVTPIILRTDPQGFFFYWTDQNKETELLDLSLVKDARCGKHAKAPKDPKLRELLDVGNIGHLEQRMITVVYGPDLVNISHLNLVAFQEEVAKEWTNEVFSLATNLLAQNMSRDAFLEKAYTKLKLQVTPEGRIPLKNIYRLFSADRKRVETALEACSLPSSRNDSIPQEDFTPDVYRVFLNNLCPRPEIDNIFSEFGAKSKPYLTVDQMMDFINLKQRDPRLNEILYPPLKQEQVQVLIEKYEPNSSLAKKGQMSVDGFMRYLSGEENGVVSPEKLDLNEDMSQPLSHYFINSSHNTYLTAGQLAGNSSVEMYRQVLLSGCRCVELDCWKGRTAEEEPVITHGFTMTTEISFKEVIEAIAECAFKTSPFPILLSFENHVDSPKQQAKMAEYCRLIFGDALLMEPLEKYPLESGVPLPSPMDLMYKILVKNKKKSHKSSEGSGKKKLSEQASNTYSDSSSVFEPSSPGAGEADTESDDDDDDDDCKKSSMDEGTAGSEAMATEEMSNLVNYIQPVKFESFETSKKRNKSFEMSSFVETKGLEQLTKSPVEFVEYNKMQLSRIYPKGTRVDSSNYMPQLFWNAGCQMVALNFQTVDLAMQINMGMYEYNGKSGYRLKPEFMRRPDKHFDPFTEGIVDGIVANTLSVKIISGQFLSDKKVGTYVEVDMFGLPVDTRRKAFKTKTSQGNAVNPVWEEEPIVFKKVVLPSLACLRIAAYEEGGKFIGHRILPVQAIRPGYHYICLRNERNQPLMLPAVFVYIEVKDYVPDTYADVIEALSNPIRYVNLMEQRAKQLAALTLEDEEEVKKEADPGETSSEAPSETRTTPAENGVNHTATLAPKPPSQAPHSQPAPGSVKAPAKTEDLIQSVLTEVEAQTIEELKQQKSFVKLQKKHYKEMKDLVKRHHKKTTELIKEHTTKYNEIQNDYLRRRAALEKSAKKDSKKKSEPSSPDHGSSAIEQDLAALDAEMTQKLIDLKDKQQQQLLNLRQEQYYSEKYQKREHIKLLIQKLTDVAEECQNNQLKKLKEICEKEKKELKKKMDKKRQEKITEAKSKDKSQMEEEKTEMIRSYIQEVVQYIKRLEEAQSKRQEKLVEKHKEIRQQILDEKPKLQMELEQEYQDKFKRLPLEILEFVQEAMKGKVSEDSNHGSAPPSLASDPAKVNLKSPSSEEVQGENAGREFDTPL
modifications: thiol-reactive probe CPM, ~1:1 probe:protein, in the titrations with TRAX (CPM-PLCβ1); unlabelled when added to CPM-Gαq
notes: phospholipase Cβ1, rat, full length enzyme; also called CPM-PLCβ1; His-tagged PLCβ1; source: Sf9 cells, purified

The target in experiment [1] is Gαq (UniProt P21279). Particulars: cited from earlier work.
Experiment [2] addresses B3. Put plainly: other fluorescence titration; 2 nM CPM-Gαq activated with GTPγS on large unilamellar vesicles of POPC:POPS:POPE (1:1:1); PLCβ1 added; without and with excess TRAX (300 nM in the text, 200 nM in the legend). The settings on record: both partners purified.
Experiment [3] concerns the target B3. Kind of experiment: other fluorescence titration; 2 nM CPM-labelled PLCβ1 (full length or ΔC) in solution, unlabelled TRAX added stepwise; increase of CPM intensity (excitation 380 nm, emission 420-560 nm) fitted to a bimolecular dissociation constant; apparent. The settings on record: both partners purified.
In experiment [4] the target is B1. Put plainly: other fluorescence titration; 2 nM CPM-Gαq activated with GTPγS on large unilamellar vesicles of POPC:POPS:POPE (1:1:1); PLCβ1 added; without and with excess TRAX (300 nM in the text, 200 nM in the legend). The settings on record: both partners purified.

On to PLCβ1 (from UniProt Q9NQ66), for which the Kd in the experiment with Gαq [1] is 0.67 nM.
As for B1, the binding result in experiment [2] is “binds”.

B2: His-tagged translin-associated factor X (TRAX) (natural protein, human, UniProt Q99598 1-290, looked up)
chain: MSNKEGSGGFRKRKHDNFPHNQRREGKDVNSSSPVMLAFKSFQQELDARHDKYERLVKLSRDITVESKRTIFLLHRITSAPDMEDILTESEIKLDGVRQKIFQVAQELSGEDMHQFHRAITTGLQEYVEAVSFQHFIKTRSLISMDEINKQLIFTTEDNGKENKTPSSDAQDKQFGTWRLRVTPVDYLLGVADLTGELMRMCINSVGNGDIDTPFEVSQFLRQVYDGFSFIGNTGPYEVSKKLYTLKQSLAKVENACYALKVRGSEIPKHMLADVFSVKTEMIDQEEGIS
notes: translin-associated factor X (TRAX), human cDNA from Open Biosystems cloned into pET32a; pET32a may also add thioredoxin and an S tag, depending on the cloning sites (surmise); source: Rosetta cells (pET32a), purified on a Ni-NTA column
As to B2, in experiment [3], the Kd was 8 nM.
B3: the “fold reduction of binding affinity in the presence of excess TRAX” value with Gαq [4] is 3 fold.
